Results published in patent US12358959B2, “Compositions and methods for oligodendrocyte development” (CHILDREN'S MEDICAL CENTER CORPORATION, priority 2016, dated 2025).

T1: Transglutaminase 2 (Tgm2), mouse, endogenous (mixed glial cell lysate / microglia-derived) (mouse, UniProt P21981 2-686)
T1 construct: Endogenous protein captured from lysate, or present in mouse tissue; also called TG2; microglial TG2
T1 sequence (looked up): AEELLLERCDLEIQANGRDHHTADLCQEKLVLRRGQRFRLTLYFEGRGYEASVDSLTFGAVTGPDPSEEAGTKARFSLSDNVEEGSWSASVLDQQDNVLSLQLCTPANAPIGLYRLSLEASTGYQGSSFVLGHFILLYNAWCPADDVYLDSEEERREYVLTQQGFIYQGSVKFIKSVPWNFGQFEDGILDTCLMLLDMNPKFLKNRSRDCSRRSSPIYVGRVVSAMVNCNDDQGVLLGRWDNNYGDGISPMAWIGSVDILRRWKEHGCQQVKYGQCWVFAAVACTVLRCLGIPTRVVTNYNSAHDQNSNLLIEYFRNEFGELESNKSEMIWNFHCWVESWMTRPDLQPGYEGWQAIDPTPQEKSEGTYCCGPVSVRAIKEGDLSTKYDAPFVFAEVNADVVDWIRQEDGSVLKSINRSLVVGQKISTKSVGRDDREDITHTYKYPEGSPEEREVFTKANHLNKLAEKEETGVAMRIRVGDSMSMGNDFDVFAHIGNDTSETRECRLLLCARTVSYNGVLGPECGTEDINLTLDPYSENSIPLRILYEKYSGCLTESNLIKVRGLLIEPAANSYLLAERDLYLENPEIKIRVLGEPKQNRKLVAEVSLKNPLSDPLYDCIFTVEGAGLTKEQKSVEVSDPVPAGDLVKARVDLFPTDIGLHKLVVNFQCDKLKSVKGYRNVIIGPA

T2: human recombinant Transglutaminase 2 (TG2) (human, UniProt P21980 1-687, limits assumed)
T2 construct: also called recombinant TG2; recombinant TGM2
T2 sequence: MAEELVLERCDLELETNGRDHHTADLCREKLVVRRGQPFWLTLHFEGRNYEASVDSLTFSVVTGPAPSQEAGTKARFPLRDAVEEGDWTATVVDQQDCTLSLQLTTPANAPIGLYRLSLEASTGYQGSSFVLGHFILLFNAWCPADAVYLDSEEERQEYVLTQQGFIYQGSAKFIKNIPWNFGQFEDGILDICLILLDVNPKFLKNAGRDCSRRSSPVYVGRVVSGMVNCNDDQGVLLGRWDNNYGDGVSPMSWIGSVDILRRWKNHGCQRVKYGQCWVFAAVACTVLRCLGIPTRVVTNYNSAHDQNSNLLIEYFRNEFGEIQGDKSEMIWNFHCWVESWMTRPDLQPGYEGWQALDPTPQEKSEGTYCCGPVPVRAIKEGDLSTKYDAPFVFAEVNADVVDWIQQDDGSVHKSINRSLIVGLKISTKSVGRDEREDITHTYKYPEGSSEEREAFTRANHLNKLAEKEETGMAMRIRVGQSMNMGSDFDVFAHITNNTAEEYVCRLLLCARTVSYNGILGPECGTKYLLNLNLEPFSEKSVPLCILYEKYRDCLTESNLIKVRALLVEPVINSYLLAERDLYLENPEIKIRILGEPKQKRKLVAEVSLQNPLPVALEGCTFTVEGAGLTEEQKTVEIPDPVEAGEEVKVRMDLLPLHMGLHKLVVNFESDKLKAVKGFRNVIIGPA

B1: Col III: collagen III (gene symbol Col3a1), ligand for GPR56 in the developing cerebral cortex (protein, UniProt P08121 155-1219, looked up)
Collagen alpha-1(III) chain: QFDSYDVKSGVGGMGGYPGPAGPPGPPGPPGSSGHPGSPGSPGYQGPPGEPGQAGPAGPPGPPGALGPAGPAGKDGESGRPGRPGERGLPGPPGIKGPAGMPGFPGMKGHRGFDGRNGEKGETGAPGLKGENGLPGDNGAPGPMGPRGAPGERGRPGLPGAAGARGNDGARGSDGQPGPPGPPGTAGFPGSPGAKGEVGPAGSPGSNGSPGQRGEPGPQGHAGAQGPPGPPGNNGSPGGKGEMGPAGIPGAPGLIGARGPPGPAGTNGIPGTRGPSGEPGKNGAKGEPGARGERGEAGSPGIPGPKGEDGKDGSPGEPGANGLPGAAGERGPSGFRGPAGPNGIPGEKGPPGERGGPGPAGPRGVAGEPGRDGTPGGPGIRGMPGSPGGPGNDGKPGPPGSQGESGRPGPPGPSGPRGQPGVMGFPGPKGNDGAPGKNGERGGPGGPGLPGPAGKNGETGPQGPPGPTGPAGDKGDSGPPGPQGLQGIPGTGGPPGENGKPGEPGPKGEVGAPGAPGGKGDSGAPGERGPPGTAGIPGARGGAGPPGPEGGKGPAGPPGPPGASGSPGLQGMPGERGGPGSPGPKGEKGEPGGAGADGVPGKDGPRGPAGPIGPPGPAGQPGDKGEGGSPGLPGIAGPRGGPGERGEHGPPGPAGFPGAPGQNGEPGAKGERGAPGEKGEGGPPGPAGPTGSSGPAGPPGPQGVKGERGSPGGPGTAGFPGGRGLPGPPGNNGNPGPPGPSGAPGKDGPPGPAGNSGSPGNPGIAGPKGDAGQPGEKGPPGAQGPPGSPGPLGIAGLTGARGLAGPPGMPGPRGSPGPQGIKGESGKPGASGHNGERGPPGPQGLPGQPGTAGEPGRDGNPGSDGQPGRDGSPGGKGDRGENGSPGAPGAPGHPGPPGPVGPSGKSGDRGETGPAGPSGAPGPAGARGAPGPQGPRGDKGETGERGSNGIKGHRGFPGNPGPPGSPGAAGHQGAIGSPGPAGPRGPVGPHGPPGKDGTSGHPGPIGPPGPRGNRGERGSEGSPGHPGQPGPPGPPGAPGPCCGGGAAAIAGVGGEKSGGFSPYYG
B2: GPR56 (ADGRG1), mouse, on cells (oligodendrocyte precursor cells; HEK 293T cells transfected with mouse Gpr56 cDNA) (receptor, UniProt Q8K209 26-687, looked up)
chain: GSPREDFRFCGQRNQTQQSTLHYDQSSEPHIFVWNTEETLTIRAPFLAAPDIPRFFPEPRGLYHFCLYWSRHTGRLHLRYGKHDYLLSSQASRLLCFQKQEQSLKQGAPLIATSVSSWQIPQNTSLPGAPSFIFSFHNAPHKVSHNASVDMCDLKKELQQLSRYLQHPQKAAKRPTAAFISQQLQSLESKLTSVSFLGDTLSFEEDRVNATVWKLPPTAGLEDLHIHSQKEEEQSEVQAYSLLLPRAVFQQTRGRRRDDAKRLLVVDFSSQALFQDKNSSQVLGEKVLGIVVQNTKVTNLSDPVVLTFQHQPQPKNVTLQCVFWVEDPASSSTGSWSSAGCETVSRDTQTSCLCNHLTYFAVLMVSSTEVEATHKHYLTLLSYVGCVISALACVFTIAAYLCSRRKSRDYTIKVHMNLLSAVFLLDVSFLLSEPVALTGSEAACRTSAMFLHFSLLACLSWMGLEGYNLYRLVVEVFGTYVPGYLLKLSIVGWGFPVFLVTLVALVDVNNYGPIILAVRRTPERVTYPSMCWIRDSLVSYVTNLGLFSLVFLFNLAMLATMVVQILRLRPHSQNWPHVLTLLGLSLVLGLPWALVFFSFASGTFQLVILYLFSIITSFQGFLIFLWYWSMRFQAQGGPSPLKNNSDSAKLPISSGSTSSSRI
notes: whole, on cells; not used here; also called OPC GPR56; OPC-GPR56

What was measured:
GPR56 NTF (GPR56^N) [1] = molecular target: GPR56 NTF (GPR56^N) (Mus musculus, UniProt Q8K209); settings: between amino acids 27-160; cited from earlier work
GPR56 NTF (GPR56^N) [2] = molecular target: GPR56 NTF (GPR56^N) (Mus musculus, UniProt Q8K209, DEL93-142); settings: aa 93-142 deleted; cited from earlier work
[3] = molecular target: T1, Transglutaminase 2 (Tgm2), mouse, …; assay: figure legend of the summary model
GPR56^N = molecular target: T3, GPR56^N (Mus musculus, UniProt Q8K209); assay: In vitro biotinylation/proteomics pull-down from mixed glial cell lysate with mass spectrometry; settings: peptide sequences specific for binding to GPR56^N
T3 construct: Using the soluble N-terminal fragment of GPR56 (GPR56^N); made in house
Description: To identify the ligand of GPR56 in OPCs, an in vitro biotinylation/proteomics approach was employed using single-step capture on streptavidin beads to purify the binding partner(s) of GPR56 (FIGS. 2A-2B). Proteins with more than five identified tryptic peptides in the Mass Spectrometry (MS) output from three independent experiments are listed at Table 1.
(§1) GPR56^N and GPR56^Ndel fusions proteins with either mFc or hFc tag were generated as previously described (Luo et al. Proc Natl Acad Sci USA 108, 12925-12930, 2011). BirA enzyme was used to in vitro biotinylate GPR56^N-mFc-biotag protein as previously described (De Laurenzi and Melino Mol Cell Biol 21, 148-155, 2001). Mixed glial cell lysate was incubated with biotinylated GPR56^N protein in lysis buffer [20 mM Hepes (pH 7.3), 150 mM NaCl, and 5 mM MgCl2] with protein inhibitor mixture (Roche Molecular Biochemicals) and 1% Brij 96 (Fluka). Streptavidin beads (Sigma) were used to affinity purify immunocomplexes. GPR56-associated proteins were eluted in 2×SDS loading buffer, subjected to SDS/PAGE. The whole lane was used for MS at the Taplin Biological Mass Spectrometry at Havard Medical School. MS data were searched against the mouse International Protein Index (IPI mouse 339) database using the protein identification software Mascot (v2.2.04, Matrix Sciences) (Luo et al. Proc Natl Acad Sci USA 108, 12925-12930, 2011).
as §1, with “al.,” for “al.”, “(Stacey et al., J” for “(De Laurenzi and Melino Mol Cell”, “Chem 277, 29283-29293, 2002).” for “21, 148-155, 2001).”, “(20” for “[20”, “[pH 7.3],” for “(pH 7.3),”, “MgCl2)” for “MgCl2]”

[4] = molecular target: T2, human recombinant Transglutaminase 2 …; assay: told in words; NTF release from HEK 293T cells expressing mouse GPR56
Description: HEK 293T cells were transiently transfected with mouse Gpr56 cDNA. […] The conditioned media were harvested, filtered, and concentrated as previously described. Equal volumes of the concentrated media were used for Western blot (Luo et al., PLOS One 9, e100043, 2014), while the cell pellets were used for GTP-Rho pull-down assay.

Sequence of GPR56 NTF (GPR56^N) (Mus musculus, UniProt Q8K209, DEL93-142) (Q8K209 with tags, fused parts or gaps DEL93-142): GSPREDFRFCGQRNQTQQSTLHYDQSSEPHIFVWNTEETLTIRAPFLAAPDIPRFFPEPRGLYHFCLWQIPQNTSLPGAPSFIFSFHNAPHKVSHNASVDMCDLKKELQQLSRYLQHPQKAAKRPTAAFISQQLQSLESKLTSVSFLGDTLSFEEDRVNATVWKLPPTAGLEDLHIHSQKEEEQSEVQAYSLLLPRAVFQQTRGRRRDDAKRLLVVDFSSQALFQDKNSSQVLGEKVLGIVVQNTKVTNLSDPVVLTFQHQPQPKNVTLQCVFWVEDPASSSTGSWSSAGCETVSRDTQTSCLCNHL

Row | Molecule | Binding to GPR56 NTF (GPR56^N) (GPR56 NTF (GPR56^N) [1]) | Binding to GPR56^Ndel (GPR56 NTF (GPR56^N) [2]) | binding result [3] | Peptide Number (Exp1) (GPR56^N; experiment 1) | Peptide Number (Exp2) (GPR56^N; experiment 2) | Peptide Number (Exp3) (GPR56^N; experiment 3) | binding result [4]
1 | B1 | binds | abrogated Col III binding |  |  |  |  | 
2 | B2 |  |  | binds | 12 | 11 | 9 | binds
